Source: US20220064329A1 (Novo Nordisk, published 2022)
Positions count from the first letter of the chain named. In names and notes the source's numbering stands.

T1: recombinant human activated Factor VII (FVIIa) (human, UniProt P08709 61-212; P08709 213-466, ten glutamate residues of the Gla domain may be gamma-carboxylated)
T1 construct: chains tethered by a disulfide bond; also called Factor VIIa; rFVIIa
T1 sequence 1: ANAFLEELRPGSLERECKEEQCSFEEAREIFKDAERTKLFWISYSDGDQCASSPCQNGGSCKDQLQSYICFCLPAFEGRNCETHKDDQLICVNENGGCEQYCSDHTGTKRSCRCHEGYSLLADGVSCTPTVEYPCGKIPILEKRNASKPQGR
T1 sequence 2: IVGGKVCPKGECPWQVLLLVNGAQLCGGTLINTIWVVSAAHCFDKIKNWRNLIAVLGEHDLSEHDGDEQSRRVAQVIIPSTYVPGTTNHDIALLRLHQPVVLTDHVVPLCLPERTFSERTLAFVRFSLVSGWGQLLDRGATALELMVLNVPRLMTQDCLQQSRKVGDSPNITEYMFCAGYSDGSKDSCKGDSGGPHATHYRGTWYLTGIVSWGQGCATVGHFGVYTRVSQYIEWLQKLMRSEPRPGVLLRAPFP

B1: VH SEQ ID NO 570 / VL SEQ ID NO 326 (antibody, IgG4, V domains shown)
VH: QVQLQESGPGLVKPSDTLSLTCAVSGYSISSDSAWSWIRQPPGKGLEWIGYIQYSGSTNYNPSLKSRVTMSRDTSKNQFSLKLSSVTAADTAVYYCARSVNYYGNSFAVGPWGQGTLVTVSS
VL: EIVLTQSPATLSLSPGERATLSCRASQGISDYLHWYQQKPGEAPRLLIKYTSQPATGIPARFSGSGSGTDFTLTISSLEPEDFGVYYCQNGHSFPLTFGAGTKLELK
notes: humanized 11F2; IgG4 S228P/kappa
B2: VH SEQ ID NO 578 / VL SEQ ID NO 342 (antibody, IgG4, V domains shown)
VH: B1 VH with R72V, A89L
VL: B1 VL with E42Q, T69R, G84A
notes: as for B1
B3: VH SEQ ID NO 578 / VL SEQ ID NO 454 (antibody, IgG4, V domains shown)
VH: B1 VH with R72V, A89L
VL: B1 VL with I29V, T51A, G84A, A100Q, L106I
notes: as for B1
B4: VH SEQ ID NO 570 / VL SEQ ID NO 398 (antibody, IgG4, V domains shown)
VH: B1 VH
VL: B1 VL with I29V, H34A, G84A, A100Q, L106I
notes: as for B1
B5: VH SEQ ID NO 578 / VL SEQ ID NO 486 (antibody, IgG4, V domains shown)
VH: B1 VH with R72V, A89L
VL: B1 VL with I29V, E42Q, T51A, A100Q, L106I
notes: as for B1
B6: VH SEQ ID NO 570 / VL SEQ ID NO 502 (antibody, IgG4, V domains shown)
VH: B1 VH
VL: B1 VL with I29V, E42Q, G84A, A100Q, L106I
notes: as for B1
B7: VH SEQ ID NO 578 / VL SEQ ID NO 470 (antibody, IgG4, V domains shown)
VH: B1 VH with R72V, A89L
VL: B1 VL with I29V, E42Q, T51A, G84A, A100Q, L106I
notes: as for B1
B8: VH SEQ ID NO 578 / VL SEQ ID NO 462 (antibody, IgG4, V domains shown)
VH: B1 VH with R72V, A89L
VL: B1 VL with I29V, E42Q, T51A, G84A, L106I
notes: as for B1
B9: VH SEQ ID NO 570 / VL SEQ ID NO 414 (antibody, IgG4, V domains shown)
VH: B1 VH
VL: B1 VL with I29V, H34A, E42Q, T51A, G84A, A100Q, L106I
notes: as for B1
B10: VH SEQ ID NO 570 / VL SEQ ID NO 438 (antibody, IgG4, V domains shown)
VH: B1 VH
VL: B1 VL with I29V, H34A, E42Q, T51A, F83V, G84A, A100Q, L106I
notes: as for B1
B11: VH SEQ ID NO 578 / VL SEQ ID NO 478 (antibody, IgG4, V domains shown)
VH: B1 VH with R72V, A89L
VL: B1 VL with I29V, E42Q, T51A, G84A, N90Q, A100Q, L106I
notes: as for B1
B12: VH SEQ ID NO 570 / VL SEQ ID NO 462 (antibody, IgG4, V domains shown)
VH: B1 VH
VL: B1 VL with I29V, E42Q, T51A, G84A, L106I
notes: as for B1
B13: VH SEQ ID NO 570 / VL SEQ ID NO 470 (antibody, IgG4, V domains shown)
VH: B1 VH
VL: B1 VL with I29V, E42Q, T51A, G84A, A100Q, L106I
notes: as for B1
B14: VH SEQ ID NO 570 / VL SEQ ID NO 382 (antibody, IgG4, V domains shown)
VH: B1 VH
VL: B1 VL with I29L, T51A, G84A, A100Q, L106I
notes: as for B1
B15: VH SEQ ID NO 578 / VL SEQ ID NO 326 (antibody, IgG4, V domains shown)
VH: B1 VH with R72V, A89L
VL: B1 VL
notes: as for B1
B16: VH SEQ ID NO 578 / VL SEQ ID NO 318 (antibody, IgG4, V domains shown)
VH: B1 VH with R72V, A89L
VL: B1 VL with G84A, A100Q, L106I
notes: as for B1
B17: VH SEQ ID NO 570 / VL SEQ ID NO 494 (antibody, IgG4, V domains shown)
VH: B1 VH
VL: B1 VL with I29V, E42Q, T51A, F83V, G84A, A100Q, L106I
notes: as for B1
B18: VH SEQ ID NO 570 / VL SEQ ID NO 334 (antibody, IgG4, V domains shown)
VH: B1 VH
VL: B1 VL with E42Q, T51A, G84A, A100Q, L106I
notes: as for B1
B19: VH SEQ ID NO 570 / VL SEQ ID NO 446 (antibody, IgG4, V domains shown)
VH: B1 VH
VL: B1 VL with I29V, H34A, E42Q, G84A, A100Q, L106I
notes: as for B1
B20: VH SEQ ID NO 578 / VL SEQ ID NO 334 (antibody, IgG4, V domains shown)
VH: B1 VH with R72V, A89L
VL: B1 VL with E42Q, T51A, G84A, A100Q, L106I
notes: as for B1
B21: VH SEQ ID NO 570 / VL SEQ ID NO 430 (antibody, IgG4, V domains shown)
VH: B1 VH
VL: B1 VL with I29V, H34A, E42Q, T51A, A100Q, L106I
notes: as for B1
B22: VH SEQ ID NO 578 / VL SEQ ID NO 382 (antibody, IgG4, V domains shown)
VH: B1 VH with R72V, A89L
VL: B1 VL with I29L, T51A, G84A, A100Q, L106I
notes: as for B1
B23: VH SEQ ID NO 570 / VL SEQ ID NO 390 (antibody, IgG4, V domains shown)
VH: B1 VH
VL: B1 VL with I29V, H34A, T51A, G84A, A100Q, L106I
notes: as for B1
B24: VH SEQ ID NO 570 / VL SEQ ID NO 422 (antibody, IgG4, V domains shown)
VH: B1 VH
VL: B1 VL with I29V, H34A, E42Q, T51A, G84A, N90Q, A100Q, L106I
notes: as for B1
B25: VH SEQ ID NO 570 / VL SEQ ID NO 406 (antibody, IgG4, V domains shown)
VH: B1 VH
VL: B1 VL with I29V, H34A, E42Q, T51A, G84A, L106I
notes: as for B1
B26: VH SEQ ID NO 578 / VL SEQ ID NO 430 (antibody, IgG4, V domains shown)
VH: B1 VH with R72V, A89L
VL: B1 VL with I29V, H34A, E42Q, T51A, A100Q, L106I
notes: as for B1
B27: VH SEQ ID NO 570 / VL SEQ ID NO 366 (antibody, IgG4, V domains shown)
VH: B1 VH
VL: B1 VL with I29L, H34A, T51A, G84A, A100Q, L106I
notes: as for B1
B28: VH SEQ ID NO 570 / VL SEQ ID NO 454 (antibody, IgG4, V domains shown)
VH: B1 VH
VL: B1 VL with I29V, T51A, G84A, A100Q, L106I
notes: as for B1
B29: VH SEQ ID NO 578 / VL SEQ ID NO 358 (antibody, IgG4, V domains shown)
VH: B1 VH with R72V, A89L
VL: B1 VL with E42Q, G84A, A100Q, L106I
notes: as for B1
B30: VH SEQ ID NO 570 / VL SEQ ID NO 342 (antibody, IgG4, V domains shown)
VH: B1 VH
VL: B1 VL with E42Q, T69R, G84A
notes: as for B1
B31: VH SEQ ID NO 570 / VL SEQ ID NO 478 (antibody, IgG4, V domains shown)
VH: B1 VH
VL: B1 VL with I29V, E42Q, T51A, G84A, N90Q, A100Q, L106I
notes: as for B1
B32: VH SEQ ID NO 570 / VL SEQ ID NO 486 (antibody, IgG4, V domains shown)
VH: B1 VH
VL: B1 VL with I29V, E42Q, T51A, A100Q, L106I
notes: as for B1
B33: VH SEQ ID NO 578 / VL SEQ ID NO 350 (antibody, IgG4, V domains shown)
VH: B1 VH with R72V, A89L
VL: B1 VL with E42Q, G84A
notes: as for B1
B34: VH SEQ ID NO 570 / VL SEQ ID NO 350 (antibody, IgG4, V domains shown)
VH: B1 VH
VL: B1 VL with E42Q, G84A
notes: as for B1
B35: VH SEQ ID NO 570 / VL SEQ ID NO 358 (antibody, IgG4, V domains shown)
VH: B1 VH
VL: B1 VL with E42Q, G84A, A100Q, L106I
notes: as for B1

The binders below were run against T1, recombinant human activated Factor VII … (assay: BLI (Fortebio)).

Kd	Binder
0.55 nM	B1
43 nM	B2
25 nM	B3
29 nM	B4
23 nM	B5
0.92 nM	B6
25 nM	B7
27 nM	B8
21 nM	B9
210 nM	B10
310 nM	B11
1.1 nM	B12
1.1 nM	B13
1.3 nM	B14
16 nM	B15
17 nM	B16
1.1 nM	B17
0.92 nM	B18

Kd	Binder
24 nM	B19
22 nM	B20
16 nM	B21
30 nM	B22
48 nM	B23
2400 nM	B24
20 nM	B25
820 nM	B26
14 nM	B27
1.1 nM	B28
19 nM	B29
1.5 nM	B30
1.9 nM	B31
0.99 nM	B32
21 nM	B33
1 nM	B34
0.85 nM	B35
